The results in this text go back to patent US12258605B2, “Alkane oxidation by modified hydroxylases” (The California Institute of Technology, priority 2005, dated 2025).

One data set in a line: Activity on palmitate. The data set is classed as biochemical. The protocol: To evaluate the fate of the enzyme's original function, P450PMO activity was tested on the long-chain fatty acids laurate and palmitate.
The nature of data set [1]: Halomethane reactions (formaldehyde, PFBHA, GC-ECD): iodomethane. The data set is classed as biochemical. Conditions: formaldehyde formation. The protocol: Halomethane reactions: Reactions with chloromethane, bromomethane, and iodomethane were carried out in 1 mL-scale using halomethane-saturated buffer (100 mM phosphate pH 8.0) and 50-500 nM purified protein. 900 μL buffer were added with protein, incubated for 15 seconds, and then added with 100 μL NADPH regeneration solution (100 units/mL IDH, 70 mg/mL isocitrate, 1.5 mg/ml NADP+). Solution were sealed and stirred for 30 minutes at 25° C. To reduce background levels of formaldehyde to a minimum, buffers were prepared using HPLC-grade water and autoclaved twice prior to use. Formaldehyde concentration in the reaction solutions was determined through derivatization with o-(2,3,4,5,6-pentafluorobenzyl)hydroxylamine hydrochloride (PFBHA) and gas chromatography. […] Organic phase was removed, diluted 1/100 v/v, and analyzed on a Shimadzu GC-17A gas chromatograph. […] Quantification was carried out using a calibration curve and solutions at known concentration of formaldehyde. […]
Along with activity on propane, P450PMO also hydroxylates ethane (TTN˜2,500), despite ethane's higher C—H bond energy (101.0 kcal mol^−1 versus 98.6 kcal mol^−1 for propane). […] Reactions with purified P450 variants and the halomethanes were analyzed for formaldehyde formation (FIG. 42). […] Activity on chloromethane was detected at lower levels (0.5-1% of propane activity) and in fewer P450 variants. […]

B1: P450PMO: P450 BM-3 variant, SEQ ID NO:125; 7-7 plus G443A and D698G; propane monooxygenase (protein)
chain: TIKEMPQPKTFGELKNLPLLNTDKPVQALMKIADELGEIFKFEAPGCVTRYISSQRLIKEACDESRFDKNLSQELKFFRDFGGDGLFTSWTHEINWKKAHNILLPSFSQQAMKGYHAMMVDIAVQLVQKWERLNADEHIEVSEDMTRLTLDTIGLCGFNYRFNSFYRDQPHPFIISMVRALDEVMNKPQRANPDDPAYDENKRQCQEDIKVMNDLVDKIIADRKARGEQSDDLLTQMLNGKDPETGEPLDDGNISYQIITFLIAGHETTSGLLSFALYFLVKNPHVLQKVVEEAARVLVDPVPSYKQVKQLKYVGMVLNEALRLWPTFPAFSLYAKEDTVLGGEYPLEKGDEVMVLIPQLHRDKTVWGDDVEEFRPERFENPSAIPQHAFKPFGNGQRACIGQQFALHEATLVLGMMLKHFDFEDHTNYELDIKETLTLKPEAFVVKAKSKKIPLGGIPSPSTGQSAKKVRKKAENAHNTPLLVLYGSNMGTAEGTARDLADIAMSKGFAPQVATLDSHAGNLPREGAVLIVTASYNGHPPDNAKQFVDWLDQASADEVKGVRYSVFGCGDKNWATTYQKVPAFIDETLAAKGAENIADRGEADASDDFEGTYEEWREHMWSDVAAYFNLDIENSEDNKSTLSLQFVDSAADMPLAKMHGAFSTNVVASKELQQPGSARSTRHLEIELPKEASYQEGGHLGVIPRNYEGTVNRVTARFGLDASQQIRLEAEEEKLAHLPLAKTVSVEELLQYVELQDPVTRTQLRAMAAKTVCPPHKVELEALLEKQAYKEQVLAKRLTMLELLEKYPACEMKFSEFIALLPSIRPRYYSISSSPRVDEKQASITVSVVSGEAWSGYGEYKGIASNYLAELQEGDTITCFISTPQSEFTLPKDPETPLIMVGPGTGVAPFRGFVQARKQLKEQGQSLGEAHLYFGCRSPHEDYLYQEELENAQSEGIITLHTAFSRMPNQPKTYVQHVMEQDGKKLIELLDQGAHFYICGDGSQMAPAVEATLMKSYADVHQVSEADARLWLQQLEEKGRYAKDVWAG
modifications: Mutant P450PMO protein sequence
notes: 7-7 plus G443A and D698G; propane monooxygenase
In the case of B1, in “Activity on palmitate”, the “hydroxylated fatty acids formed” value was “no detectable amounts of hydroxylated fatty acids”. The iodomethane dehalogenase activity result in data set [1] is “could be detected”.
